According to PMC10018365, “Cryo-EM structure of the fully assembled Elongator complex” (Nucleic Acids Research, 2023):

B1: Saccharomyces cerevisiae Elp456 subcomplex (hetero-hexameric ring) (complex)
chain 1: MSFRKRGEILNDRGSGLRGPLLRGPPRTSSTPLRTGNRRAPGNVPLSDTTARLKKLNIADESKTKMGLDSSHVGVRPSPATSQPTTSTGSADLDSILGHMGLPLGNSVLVEEQSTTEFHSILGKLFAAQGIVHNRISDSSADKTRNGDTHVIVLSLNQMFAKELPGIYKGSRKQMKKNLISEEESKVTVQNLNETQRSTPSRYKDLKIAWKYKLADEKRLGSPDRDDIQQNSEYKDYNHQFDITTRLMPAPIASELTFIAPTQPVSTILSQIEQTIKRNDKKLIRIVIPSLLHPAMYPPKMFESSEIIGLMHGVRSLVKKYYERVVLFASISIDIITPPLLVLLRNMFDSVINLEPFNQEMTEFLERVYKSQPGKIQHGLVHILKLPVFTDRGEMRVLKSEWAFKNGRKKFEIEQWGIPVDDAEGSAASEQSHSHSHSDEISHNIPAKKTKISLDY
chain 2: MASSSHNPVILLKRILSLTESSPFILCLDSIAQTSYKLIQEFVHQSKSKGNEYPIVYISFETVNKPSYCTQFIDATQMDFVHLVKQIISYLPAATATQAKKHMVIIDSLNYISTEYITRFLSEIASPHCTMVATYHKDIKDENRTVIPDWNNNYPDKLTLLQFMATTIVDIDVVLTGTLDTEEVSELLNEFRIPRGLNNDIFQLRLVNKRKSGRSLEYDFIVNSNTHEYELLSTTKQEEESSSNGLETPEMLQGLTTFNLGTSNKQKLAKDQVALPFLEAQSFGQGGAIVYEYEKDDDYDEEDPYEDPF
chain 3: MGSVQRQDLVLFSDQSVLPAHFFQDSNSHNLFFITHQSCTQPLWMINALVETHVLGSPSSLNESSSSMLPSSTRSHAVLASFIHEQNYFTNSLNKLKIPSNNYNVLDFLSDFIVNNIHNKPRDKILSDVLAKFSAAIQNNPTDTIVIIEQPELLLSLVSGLTCSELNNKFITPLLRQCKVLIIVSNSDIFNIDEYDASVHSSNLQNFYKSSFIKSMINLNLNPLKTGFAKDVTGSLHVCRGGAPIATSNTSLHVVENEYLYLNEKESTKLFYR
notes: Elp4, S. cerevisiae, full-length ORF; Elp5, S. cerevisiae, full-length ORF; Elp6, S. cerevisiae, full-length ORF; Symmetric dimer of trimers; also called ScElp456; yeast Elp456; source: S. cerevisiae DS1-2b, overexpressed, purified with ScElongator (IgG Sepharose with TEV elution, StrepTrap, Superose 6); free rings seen in one data set; not shown: protein A (Staphylococcus aureus), C-terminal, …
B2: Saccharomyces cerevisiae Elp4 (natural protein, UniProt Q02884 1-456, looked up)
chain: MSFRKRGEILNDRGSGLRGPLLRGPPRTSSTPLRTGNRRAPGNVPLSDTTARLKKLNIADESKTKMGLDSSHVGVRPSPATSQPTTSTGSADLDSILGHMGLPLGNSVLVEEQSTTEFHSILGKLFAAQGIVHNRISDSSADKTRNGDTHVIVLSLNQMFAKELPGIYKGSRKQMKKNLISEEESKVTVQNLNETQRSTPSRYKDLKIAWKYKLADEKRLGSPDRDDIQQNSEYKDYNHQFDITTRLMPAPIASELTFIAPTQPVSTILSQIEQTIKRNDKKLIRIVIPSLLHPAMYPPKMFESSEIIGLMHGVRSLVKKYYERVVLFASISIDIITPPLLVLLRNMFDSVINLEPFNQEMTEFLERVYKSQPGKIQHGLVHILKLPVFTDRGEMRVLKSEWAFKNGRKKFEIEQWGIPVDDAEGSAASEQSHSHSHSDEISHNIPAKKTKISLDY
notes: Elp4, S. cerevisiae, full-length ORF; also called ScElp4; source: S. cerevisiae DS1-2b, overexpressed, purified within ScElongator
B3: Saccharomyces cerevisiae Elp5 (natural protein, UniProt P38874 1-309, looked up)
chain: MASSSHNPVILLKRILSLTESSPFILCLDSIAQTSYKLIQEFVHQSKSKGNEYPIVYISFETVNKPSYCTQFIDATQMDFVHLVKQIISYLPAATATQAKKHMVIIDSLNYISTEYITRFLSEIASPHCTMVATYHKDIKDENRTVIPDWNNNYPDKLTLLQFMATTIVDIDVVLTGTLDTEEVSELLNEFRIPRGLNNDIFQLRLVNKRKSGRSLEYDFIVNSNTHEYELLSTTKQEEESSSNGLETPEMLQGLTTFNLGTSNKQKLAKDQVALPFLEAQSFGQGGAIVYEYEKDDDYDEEDPYEDPF
notes: Elp5, S. cerevisiae, full-length ORF; also called ScElp5; source: S. cerevisiae DS1-2b, overexpressed, purified within ScElongator
B4: Saccharomyces cerevisiae Elp6 (natural protein, UniProt Q04868 1-273, looked up)
chain: MGSVQRQDLVLFSDQSVLPAHFFQDSNSHNLFFITHQSCTQPLWMINALVETHVLGSPSSLNESSSSMLPSSTRSHAVLASFIHEQNYFTNSLNKLKIPSNNYNVLDFLSDFIVNNIHNKPRDKILSDVLAKFSAAIQNNPTDTIVIIEQPELLLSLVSGLTCSELNNKFITPLLRQCKVLIIVSNSDIFNIDEYDASVHSSNLQNFYKSSFIKSMINLNLNPLKTGFAKDVTGSLHVCRGGAPIATSNTSLHVVENEYLYLNEKESTKLFYR
notes: Elp6, S. cerevisiae, full-length ORF; also called ScElp6; source: S. cerevisiae DS1-2b, overexpressed, purified within ScElongator; not shown: protein A (Staphylococcus aureus), C-terminal, cleaved

Key:
Conditions in all cases: both partners purified
[1] = target: T1, Saccharomyces cerevisiae Elp123 subcomplex (Saccharomyces cerevisiae, UniProt Q06706 1-1349; P42935 1-788; Q02908 1-557); test: cryo-EM structure; ScElongator purified from overexpressing yeast, native sample (4.35 Å) and BS3-stabilised sample (6.6 Å; two-lobed map 17.2 Å); sample buffer 20 mM HEPES pH 7.5, 100 mM NaCl, 3 mM DTT
T1 construct: Elp1, S. cerevisiae, full-length ORF; Elp2, S. cerevisiae, full-length ORF; Elp3, S. cerevisiae, full-length ORF; also called ScElp123; yeast Elp123; not shown: Twin-Strep-tag, C-terminal, kept; copies: 2 + 2 + 2
T1 sequence (P42935 whole entry, one chain of several): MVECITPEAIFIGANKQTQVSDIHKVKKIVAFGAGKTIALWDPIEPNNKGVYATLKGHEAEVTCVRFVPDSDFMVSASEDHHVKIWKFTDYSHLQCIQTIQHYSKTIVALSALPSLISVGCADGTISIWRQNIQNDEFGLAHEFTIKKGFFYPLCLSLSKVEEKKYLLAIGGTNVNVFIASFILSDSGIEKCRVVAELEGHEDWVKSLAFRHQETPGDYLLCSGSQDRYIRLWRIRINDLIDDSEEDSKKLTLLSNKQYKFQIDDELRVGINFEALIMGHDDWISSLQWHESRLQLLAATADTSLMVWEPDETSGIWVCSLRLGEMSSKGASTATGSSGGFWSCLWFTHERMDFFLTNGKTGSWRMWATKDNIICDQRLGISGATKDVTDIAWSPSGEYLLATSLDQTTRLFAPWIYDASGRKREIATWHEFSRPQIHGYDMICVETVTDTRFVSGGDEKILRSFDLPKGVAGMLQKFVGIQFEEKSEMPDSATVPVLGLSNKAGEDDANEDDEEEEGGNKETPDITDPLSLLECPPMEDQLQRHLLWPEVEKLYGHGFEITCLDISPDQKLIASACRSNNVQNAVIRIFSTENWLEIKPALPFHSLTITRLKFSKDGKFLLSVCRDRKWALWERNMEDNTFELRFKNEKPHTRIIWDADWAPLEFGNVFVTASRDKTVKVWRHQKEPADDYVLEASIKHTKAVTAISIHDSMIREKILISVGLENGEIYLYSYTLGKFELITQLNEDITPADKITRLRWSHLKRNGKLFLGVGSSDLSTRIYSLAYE

[2] = target: T2, Saccharomyces cerevisiae Elp1 (Saccharomyces cerevisiae, UniProt Q06706 1-1349); test: as above
T2 construct: Elp1, S. cerevisiae, full-length ORF; also called ScElp1; source: S. cerevisiae DS1-2b, overexpressed, purified within ScElongator
T2 sequence (looked up): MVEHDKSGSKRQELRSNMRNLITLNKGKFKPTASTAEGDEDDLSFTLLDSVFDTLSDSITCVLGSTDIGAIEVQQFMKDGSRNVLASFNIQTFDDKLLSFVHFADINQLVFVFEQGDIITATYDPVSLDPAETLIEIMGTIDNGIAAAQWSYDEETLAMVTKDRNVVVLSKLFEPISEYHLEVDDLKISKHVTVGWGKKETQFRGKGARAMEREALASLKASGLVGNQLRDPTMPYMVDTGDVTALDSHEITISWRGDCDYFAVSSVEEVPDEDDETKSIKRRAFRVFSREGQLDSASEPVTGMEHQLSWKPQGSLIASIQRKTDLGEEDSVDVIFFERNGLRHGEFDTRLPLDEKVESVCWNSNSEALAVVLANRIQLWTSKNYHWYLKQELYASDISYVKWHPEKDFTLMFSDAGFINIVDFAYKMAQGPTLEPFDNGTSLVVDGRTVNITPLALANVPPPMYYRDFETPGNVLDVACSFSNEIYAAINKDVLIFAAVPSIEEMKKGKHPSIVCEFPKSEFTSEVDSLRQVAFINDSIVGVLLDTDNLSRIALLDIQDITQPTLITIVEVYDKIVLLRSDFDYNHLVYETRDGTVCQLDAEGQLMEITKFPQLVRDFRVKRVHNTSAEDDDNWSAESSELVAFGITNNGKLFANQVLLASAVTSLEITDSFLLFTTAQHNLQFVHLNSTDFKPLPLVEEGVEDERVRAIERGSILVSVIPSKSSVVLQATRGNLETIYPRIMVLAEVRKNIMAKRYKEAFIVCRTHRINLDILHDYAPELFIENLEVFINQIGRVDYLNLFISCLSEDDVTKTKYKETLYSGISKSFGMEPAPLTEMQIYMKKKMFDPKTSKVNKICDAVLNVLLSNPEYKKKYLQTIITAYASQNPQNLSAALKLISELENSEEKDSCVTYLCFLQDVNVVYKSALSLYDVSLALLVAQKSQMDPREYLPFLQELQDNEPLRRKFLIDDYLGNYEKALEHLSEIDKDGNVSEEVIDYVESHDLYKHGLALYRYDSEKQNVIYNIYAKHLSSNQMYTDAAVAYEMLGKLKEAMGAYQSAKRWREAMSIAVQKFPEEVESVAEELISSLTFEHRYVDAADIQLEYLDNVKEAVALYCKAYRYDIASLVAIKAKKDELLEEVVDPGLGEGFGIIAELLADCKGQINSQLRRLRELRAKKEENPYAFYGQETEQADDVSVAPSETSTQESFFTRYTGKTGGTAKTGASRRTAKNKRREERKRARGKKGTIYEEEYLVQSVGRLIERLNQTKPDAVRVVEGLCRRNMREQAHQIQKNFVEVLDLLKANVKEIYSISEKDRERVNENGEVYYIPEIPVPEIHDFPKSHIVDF

[3] = target: T3, Saccharomyces cerevisiae Elp3 (Saccharomyces cerevisiae, UniProt Q02908 1-557); test: as above
T3 construct: Elp3, S. cerevisiae, full-length ORF; also called ScElp3; source: S. cerevisiae DS1-2b, overexpressed, purified within ScElongator; not shown: Twin-Strep-tag, C-terminal, kept
T3 sequence (looked up): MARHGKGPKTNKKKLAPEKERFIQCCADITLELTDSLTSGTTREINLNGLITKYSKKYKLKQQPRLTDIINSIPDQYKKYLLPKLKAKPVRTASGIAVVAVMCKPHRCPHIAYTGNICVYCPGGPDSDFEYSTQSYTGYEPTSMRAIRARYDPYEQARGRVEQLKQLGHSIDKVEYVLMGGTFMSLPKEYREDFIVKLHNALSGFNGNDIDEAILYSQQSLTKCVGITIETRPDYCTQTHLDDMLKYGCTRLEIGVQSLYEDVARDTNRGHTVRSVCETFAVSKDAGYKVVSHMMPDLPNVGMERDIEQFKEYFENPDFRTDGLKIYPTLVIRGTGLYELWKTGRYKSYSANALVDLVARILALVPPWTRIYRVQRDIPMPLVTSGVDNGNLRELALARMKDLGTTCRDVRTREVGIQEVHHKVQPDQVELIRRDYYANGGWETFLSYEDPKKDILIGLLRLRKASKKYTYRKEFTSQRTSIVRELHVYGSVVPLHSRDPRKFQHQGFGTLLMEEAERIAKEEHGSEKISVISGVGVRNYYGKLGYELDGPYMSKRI

[4] = target: B2; test: cryo-EM structure; free full-length ScElp456 rings found in one data set, 3.7 Å
[5] = target: B3; test: as above

Binder | binding result [1] | binding result [2] | binding result [3] | binding result [4] | binding result [5]
B1 | binds |  |  |  | 
B2 |  | binds | binds |  | 
B3 |  | binds |  | binds | 
B4 |  |  | binds | binds | binds
